According to IntAct's records for PubMed 12386165:

B1: Solute carrier family 12 member 1 (Homo sapiens), Q13621 (parent)
chain: MSLNNSSNVFLDSVPSNTNRFQVSVINENHESSAAADDNTDPPHYEETSFGDEAQKRLRISFRPGNQECYDNFLQSGETAKTDASFHAYDSHTNTYYLQTFGHNTMDAVPKIEYYRNTGSISGPKVNRPSLLEIHEQLAKNVAVTPSSADRVANGDGIPGDEQAENKEDDQAGVVKFGWVKGVLVRCMLNIWGVMLFIRLSWIVGEAGIGLGVLIILLSTMVTSITGLSTSAIATNGFVRGGGAYYLISRSLGPEFGGSIGLIFAFANAVAVAMYVVGFAETVVDLLKESDSMMVDPTNDIRIIGSITVVILLGISVAGMEWEAKAQVILLVILLIAIANFFIGTVIPSNNEKKSRGFFNYQASIFAENFGPRFTKGEGFFSVFAIFFPAATGILAGANISGDLEDPQDAIPRGTMLAIFITTVAYLGVAICVGACVVRDATGNMNDTIISGMNCNGSAACGLGYDFSRCRHEPCQYGLMNNFQVMSMVSGFGPLITAGIFSATLSSALASLVSAPKVFQALCKDNIYKALQFFAKGYGKNNEPLRGYILTFLIAMAFILIAELNTIAPIISNFFLASYALINFSCFHASYAKSPGWRPAYGIYNMWVSLFGAVLCCAVMFVINWWAAVITYVIEFFLYVYVTCKKPDVNWGSSTQALSYVSALDNALELTTVEDHVKNFRPQCIVLTGGPMTRPALLDITHAFTKNSGLCICCEVFVGPRKLCVKEMNSGMAKKQAWLIKNKIKAFYAAVAADCFRDGVRSLLQASGLGRMKPNTLVIGYKKNWRKAPLTEIENYVGIIHDAFDFEIGVVIVRISQGFDISQVLQVQEELERLEQERLALEATIKDNECEEESGGIRGLFKKAGKLNITKTTPKKDGSINTSQSMHVGEFNQKLVEASTQFKKKQEKGTIDVWWLFDDGGLTLLIPYILTLRKKWKDCKLRIYVGGKINRIEEEKIVMASLLSKFRIKFADIHIIGDINIRPNKESWKVFEEMIEPYRLHESCKDLTTAEKLKRETPWKITDAELEAVKEKSYRQVRLNELLQEHSRAANLIVLSLPVARKGSISDLLYMAWLEILTKNLPPVLLVRGNHKNVLTFYS
B2: Solute carrier family 12 member 6 (Mus musculus), Q924N4-1 (parent)
chain: MHPPEATTKMSSVRFMVTPTKIDDIPGLSDTSPDLSSRSSSRVRFSSRESVPETSRSEPMSELSGATTSLATVALDPSSDRTSNPQDVTEDPSQNSITGEHSQLLDDGHKKARNAYLNNSNYEEGDEYFDKNLALFEEEMDTRPKVSSLLNRMANYTNLTQGAKEHEEAENITEGKKKPTKSPQMGTFMGVYLPCLQNIFGVILFLRLTWVVGTAGILQAFAIVLICCCCTMLTAISMSAIATNGVVPAGGSYFMISRALGPEFGGAVGLCFYLGTTFAAAMYILGAIEIFLVYIVPRAAIFRSDDALKESAAMLNNMRVYGTAFLVLMVLVVFIGVRYVNKFASLFLACVIVSILAIYAGAIKSSFAPPHFPVCMLGNRTLSSRHLDICSKTKEVDNMTVPSKLWGFFCNSSQFFNATCDEYFVHNNVISIQGIPGLASGIITENLWSNYLPKGEIIEKPSAKSSDVLGNLNHEYVLADITTSFTLLVGIFFPSVTGIMAGSNRSGDLKDAQKSIPIGTILAILTTSFVYLSNVVLFGACIEGVVLRDKFGDAVKGNLVVGTLSWPSPWVIVIGSFFSTCGAGLQSLTGAPRLLQAIAKDNIIPFLRVFGHSKANGEPTWALLLTAAIAELGILIASLDLVAPILSMFFLMCYLFVNLACALQTLLRTPNWRPRFRYYHWALSFMGMSICLALMFISSWYYAIVAMVIAGMIYKYIEYQGAEKEWGDGIRGLSLSAARFALLRLEEGPPHTKNWRPQLLVLLKLDEDLHVKHPRLLTFASQLKAGKGLTIVGSVIVGNFLENYGDALAAEQTIKHLMEAEKVKGFCQLVVAAKLKEGISHLIQSCGLGGMKHNTVVMGWPNGWRQSEDARAWKTFIGTVRVTTAAHLALLVAKNVSFFPSNVEQFSEGNIDVWWIVHDGGMLMLLPFLLKQHKVWRKCSIRIFTVAQLEDNSIQMKKDLATFLYHLRIEAEVEVVEMHDSDISAYTYERTLMMEQRSQMLRHMRLSKTERDREAQLVKDRNSMLRLTSIGSDEDEETETYQEKVHMTWTKDKYMASRGQKVKSMEGFQDLLNMRPDQSNVRRMHTAVKLNEVIVNKSHEAKLVLLNMPGPPRNPEGDENYMEFLEVLTEGLERVLLVRGGGSEVITIYS

Key:
[1] = variants of: B1; conditions: with stk39_mouse Stk39, Q9Z1W9
[2] = variants of: B1; conditions: with oxsr1_mouse Oxsr1, Q6P9R2
Target sequence in this assay (Q6P9R2 whole entry): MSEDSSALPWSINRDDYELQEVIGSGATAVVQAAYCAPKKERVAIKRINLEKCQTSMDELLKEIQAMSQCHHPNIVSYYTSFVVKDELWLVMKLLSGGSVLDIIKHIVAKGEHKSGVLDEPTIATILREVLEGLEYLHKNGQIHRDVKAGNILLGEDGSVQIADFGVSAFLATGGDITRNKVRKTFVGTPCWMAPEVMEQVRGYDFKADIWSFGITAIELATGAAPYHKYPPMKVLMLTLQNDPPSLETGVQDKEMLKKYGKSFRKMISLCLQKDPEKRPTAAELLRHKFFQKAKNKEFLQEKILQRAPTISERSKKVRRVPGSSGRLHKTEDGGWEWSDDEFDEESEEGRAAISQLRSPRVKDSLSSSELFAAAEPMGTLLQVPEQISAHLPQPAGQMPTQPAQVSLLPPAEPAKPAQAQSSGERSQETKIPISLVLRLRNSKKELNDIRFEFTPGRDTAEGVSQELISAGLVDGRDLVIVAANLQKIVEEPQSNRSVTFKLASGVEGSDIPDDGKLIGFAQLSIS

[3] = variants of: B2; conditions: with oxsr1_mouse Oxsr1, Q6P9R2; remark: listed apart in the source
Target sequence in this assay (Q6P9R2 whole entry): as above

[4] = variants of: B2; conditions: with stk39_mouse Stk39, Q9Z1W9; remark: listed apart in the source

Row | Variant | effect of a mutation on the interaction [1] | effect of a mutation on the interaction [2] | effect of a mutation on the interaction [3] | effect of a mutation on the interaction [4]
1 | E28A | decreasing interaction | decreasing interaction |  | 
2 | S24A | decreasing interaction | decreasing interaction |  | 
3 | F21A | decreasing interaction | decreasing interaction |  | 
4 | V25A | decreasing interaction | decreasing interaction |  | 
5 | R20A | decreasing interaction | decreasing interaction |  | 
6 | V23A | decreasing interaction | decreasing interaction |  | 
7 | N27A | decreasing interaction | decreasing interaction |  | 
8 | R14A |  |  | decreasing interaction | decreasing interaction
9 | V17A |  |  | decreasing interaction | decreasing interaction
10 | P19A |  |  | decreasing interaction | decreasing interaction
11 | I22A |  |  | decreasing interaction | decreasing interaction
12 | K21A |  |  | decreasing interaction | decreasing interaction
13 | F15A |  |  | decreasing interaction | decreasing interaction
